From patent US20040209289A1 (IMMUNEX, published 2004)

B1: murine CD80 (full length, expressed on transfected 293 cells) (ligand, UniProt Q00609 38-306, looked up)
chain: VDEQLSKSVKDKVLLPCRYNSPHEDESEDRIYWQKHDKVVLSVIAGKLKVWPEYKNRTLYDNTTYSLIILGLVLSDRGTYSCVVQKKERGTYEVKHLALVKLSIKADFSTPNITESGNPSADTKRITCFASGGFPKPRFSWLENGRELPGINTTISQDPESELYTISSQLDFNTTRNHTIKCLIKYGDAHVSEDFTWEKPPEDPPDSKNTLVLFGAGFGAVITVVVIVVIIKCFCKHRSCFRRNEASRETNNSLTFGPEEALAEQTVFL
notes: whole, on cells; also called B7-1
B2: murine BTL-II (full length, expressed on transfected 293 cells) (ligand)
chain: FRVVGPNLPILAKVGEDALLTCQLLPKRTTAHMEVRWYRSDPAMPVIMYRDGAVVTGLPMEGYGGRAEWMEDSTEEGSVALKIRQVQPSDDGQYWCRFQEGDYWRETSVLLQVAALGSSPNIHVEGLGEGEVQLVCTSRGWFPEPEVHWEGIWGEKLMSFSENHVPGEDGLFYVEDTLMVRNDSVETISCFIYSHGLRETQEATIALSERLQTELVSVSVIGHSQPSPVQVGENIELTCHLSPQTDAQNLEVRWLRSRYYPAVHVYANGTHVAGEQMVEYKGRTSLVTDAIHEGKLTLQIHNARTSDEGQYRCLFGKDGVYQEARVDVQVTAVGSTPRITREVLKDGGMQLRCTSDGWFPRPHVQWRDRDGKTMPSFSEAFQQGSQELFQVETLLLVTNGSMVNVTCSISLPLGQEKTARFPLSDSKIALLWMTLPVVVLPLAMAMDLIKVKRRRRTNEQTHSSNQENNKNDENHRRRLPSDERLR
B3: murine B7RP-1 (full length, expressed on transfected 293 cells) (ligand, UniProt Q9JHJ8 44-322, looked up)
chain: ASAETEVGAMVGSNVVLSCIDPHRRHFNLSGLYVYWQIENPEVSVTYYLPYKSPGINVDSSYKNRGHLSLDSMKQGNFSLYLKNVTPQDTQEFTCRVFMNTATELVKILEEVVRLRVAANFSTPVISTSDSSNPGQERTYTCMSKNGYPEPNLYWINTTDNSLIDTALQNNTVYLNKLGLYDVISTLRLPWTSRGDVLCCVENVALHQNITSISQAESFTGNNTKNPQETHNNELKVLVPVLAVLAAAAFVSFIIYRRTRPHRSYTGPKTVQLELTDHA
notes: whole, on cells; also called B7h; B7-H2

Each binder was assayed against T1, CTLA4-huFC (extracellular region of murine CTLA4 fused to a human Fc region of an IgG1 antibody) (murine; human, UniProt P09793 36-161; P01857 99-330 = IgG part, limits assumed) (assay: FACS staining of transfected 293 cells with Fc fusion protein, labeled anti-human IgG Fc detection).
T1 construct: extracellular domain;domain: Fc region; Made in transfected cells and purified by Protein A chromatography
T1 sequence (P09793 other isoform, or with tags, fused parts or gaps limits assumed): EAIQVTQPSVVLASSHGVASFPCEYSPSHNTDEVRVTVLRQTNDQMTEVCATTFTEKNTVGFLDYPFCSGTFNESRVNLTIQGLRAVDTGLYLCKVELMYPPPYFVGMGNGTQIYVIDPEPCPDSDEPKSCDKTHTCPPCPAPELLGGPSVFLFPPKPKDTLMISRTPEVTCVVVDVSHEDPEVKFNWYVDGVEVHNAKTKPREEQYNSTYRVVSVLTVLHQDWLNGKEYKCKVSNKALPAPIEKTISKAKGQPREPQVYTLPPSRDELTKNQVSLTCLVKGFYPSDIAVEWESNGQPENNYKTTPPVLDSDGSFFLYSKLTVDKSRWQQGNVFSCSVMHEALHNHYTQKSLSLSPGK
Method: (§1) Full length versions of each of three murine cDNAs (encoding BTL-II, B7RP-1, CD80) were inserted into a vector appropriate for expression. About 10 μg of each of these constructs, along with an empty vector, were used separately to transfect 293 cells. Two days post transfection, about one million cells from each of the four transfections were stained with each of the fusion proteins described above. Bound protein was detected using a fluorescently labeled antibody against the human IgG Fc region. The stained cells were analyzed by FACS.
B1: binds. B2: no binding. B3: no binding.

The binders below were run against T2, mCD28-huFC (extracellular region of murine CD28 fused to a human Fc region from an IgG1 antibody) (murine; human, UniProt P31041 20-150; P01857 100-330 = IgG part) in the same assay as above.
T2 construct: extracellular domain;domain: Fc region; Bought from R & D Systems
T2 sequence (P31041 other isoform, or with tags, fused parts or gaps limits assumed): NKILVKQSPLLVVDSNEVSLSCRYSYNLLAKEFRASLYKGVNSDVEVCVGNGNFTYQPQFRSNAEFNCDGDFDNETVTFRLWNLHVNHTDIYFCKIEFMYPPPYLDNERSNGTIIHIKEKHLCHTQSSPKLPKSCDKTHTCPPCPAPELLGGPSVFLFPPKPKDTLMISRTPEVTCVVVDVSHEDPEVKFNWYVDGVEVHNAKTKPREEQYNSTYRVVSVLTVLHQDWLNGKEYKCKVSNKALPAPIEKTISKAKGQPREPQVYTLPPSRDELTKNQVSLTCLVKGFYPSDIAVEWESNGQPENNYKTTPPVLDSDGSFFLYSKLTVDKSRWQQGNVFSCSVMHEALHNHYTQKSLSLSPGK
Method: as §1
B1: binds. B2: no binding. B3: no binding.

The binders below were run against T3, ICOS-huFC (extracellular region of murine ICOS fused to a human Fc region from an IgG1 antibody) (murine; human, UniProt Q9WVS0 21-144; P01857 99-330 = IgG part, limits assumed) in the same assay as above.
T3 construct: extracellular domain;domain: Fc region; Made in transfected cells and purified by Protein A chromatography
T3 sequence (Q9WVS0 other isoform, or with tags, fused parts or gaps limits assumed): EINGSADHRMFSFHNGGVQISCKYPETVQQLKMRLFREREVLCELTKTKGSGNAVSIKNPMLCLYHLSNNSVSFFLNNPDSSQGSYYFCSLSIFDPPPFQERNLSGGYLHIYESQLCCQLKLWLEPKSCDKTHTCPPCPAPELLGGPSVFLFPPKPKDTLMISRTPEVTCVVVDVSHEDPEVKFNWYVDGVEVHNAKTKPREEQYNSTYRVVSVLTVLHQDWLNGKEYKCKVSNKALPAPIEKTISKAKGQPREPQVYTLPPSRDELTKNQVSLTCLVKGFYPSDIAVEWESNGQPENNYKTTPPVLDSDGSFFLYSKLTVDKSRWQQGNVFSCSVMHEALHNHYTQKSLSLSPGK
Method: as §1
B1: no binding. B2: no binding. B3: binds.

The binders below were run against T4, PD1-huFC (extracellular region of murine PD-1 fused to a human Fc region of an IgG1 antibody) (murine; human, UniProt Q02242 25-169; P01857 100-330 = IgG part) in the same assay as above.
T4 construct: extracellular domain;domain: Fc region; Bought from R & D Systems
T4 sequence (Q02242 other isoform, or with tags, fused parts or gaps limits assumed): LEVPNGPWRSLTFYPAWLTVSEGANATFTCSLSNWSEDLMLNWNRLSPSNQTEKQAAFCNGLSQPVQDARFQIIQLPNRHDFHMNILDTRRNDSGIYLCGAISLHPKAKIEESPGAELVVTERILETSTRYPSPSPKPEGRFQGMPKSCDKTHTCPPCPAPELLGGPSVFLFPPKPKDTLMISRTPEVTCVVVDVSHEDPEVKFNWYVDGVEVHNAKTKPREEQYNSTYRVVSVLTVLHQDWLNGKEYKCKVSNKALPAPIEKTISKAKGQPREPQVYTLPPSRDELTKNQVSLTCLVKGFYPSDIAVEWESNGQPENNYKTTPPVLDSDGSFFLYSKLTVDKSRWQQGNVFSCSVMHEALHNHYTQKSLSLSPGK
Method: as §1
B1: no binding. B2: no binding. B3: no binding.
